# Ends that are not written are not given here. * marks the point of attachment. Biotin = O=C1N[C@H]2[C@H](CS[C@H]2CCCCC(=O)*)N1
# B1: imm6 (peptide)
# peptide: Biotin-HRGFYRKRQCRSSQGQRRGPCW
# modifications: cysteine pairing not given here; also: labelled with Streptavidin-Alexa 488 conjugate (SA488)
# notes: Synthetic immodulin peptide derived from IGFBP-6; also called immodulin peptide-6
# B2: imm3 (peptide)
# peptide: Biotin-KKGFYKKKQCRPSKGRKRGFCW
# modifications: cysteine pairing not given here; also: labelled with Streptavidin-Alexa 488 conjugate (SA488)
# notes: Synthetic immodulin peptide derived from IGFBP-3; also called immodulin peptide-3
# B3: imm4 (peptide)
# peptide: Biotin-RNGNFHPKQCHPALDGQRGKCW
# modifications: cysteine pairing not given here; also: labelled with Streptavidin-Alexa 488 conjugate (SA488)
# notes: Synthetic immodulin peptide derived from IGFBP-4
# B4: imm5 (peptide)
# peptide: Biotin-RKGFYKRKQCKPSRGRKRGICW
# modifications: cysteine pairing not given here; also: labelled with Streptavidin-Alexa 488 conjugate (SA488)
# notes: Synthetic immodulin peptide derived from IGFBP-5; also called immodulin peptide-5
# Legend:
# [1] = biological target: T1, RXR-alpha ligand-binding domain (human, UniProt P19793 223-462, limits assumed); assay: plate binding assay, 800 ng/well SA488-labelled peptide on 100 ng/well adsorbed domain
# T1 construct: Bought recombinant protein (Abcam); also called RXRa-LBD; RXR-alpha LBD
# T1 sequence (looked up): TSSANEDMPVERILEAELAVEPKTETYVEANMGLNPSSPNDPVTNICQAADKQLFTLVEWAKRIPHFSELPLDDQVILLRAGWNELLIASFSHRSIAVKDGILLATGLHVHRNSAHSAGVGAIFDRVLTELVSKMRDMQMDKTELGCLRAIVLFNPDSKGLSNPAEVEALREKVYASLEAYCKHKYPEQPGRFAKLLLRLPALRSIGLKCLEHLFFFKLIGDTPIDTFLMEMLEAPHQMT
# Description: (§1) Experiment 4B. Binding of immodulin peptides to RXR isoforms and domains. 100 ng/well recombinant human RXRa-DBD or RXRa-LBD, or 400 ng/well full length RXR-alpha, RXR-beta, RXR-gamma or PPAR-gamma (Abcam, Cambridge, MA) was adsorbed to wells of a 96-well plate for 60 minutes at room temperature, then blocked with 200 uL 1% BSA in PBS buffer overnight. The plate was washed with PBS and 800 ng/well Streptavidin-Alexa 488 conjugate (SA488)-labelled peptide was added. The plate was incubated for 2 hours at room temperature, washed and counted in a fluorometer (excitation/emission 485/525 nm).
# [2] = biological target: T2, AA111-228 DNA-binding domain of RXR-alpha (human, UniProt P19793 111-228); assay: as above
# T2 construct: range 111-228; Bought recombinant protein (Abcam); also called RXRa-DBD; RXR-alpha DBD
# T2 sequence (looked up): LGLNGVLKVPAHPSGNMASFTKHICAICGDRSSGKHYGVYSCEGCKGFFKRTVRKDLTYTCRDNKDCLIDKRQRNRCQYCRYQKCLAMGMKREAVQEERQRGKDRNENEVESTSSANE
# Description: as §1
# [3] = biological target: T2, AA111-228 DNA-binding domain of …; assay: plate binding assay, 800 ng/well SA488-labelled peptide on 1 ug/well adsorbed RXRa-DBD
# Description: Experiment 4A. Binding of immodulin peptides to AA111-228 DNA-binding domain of RXR-alpha (RXRa-DBD). 1 ug/well recombinant RXRa-DBD (Abcam, Cambridge, MA) was adsorbed to wells of a 96-well plate for 60 minutes at room temperature, then blocked with 200 uL 1% bovine serum albumin (BSA) in PBS buffer overnight. Plate was washed and 800 ng/well Streptavidin-Alexa 488 conjugate (SA488)-labelled immX peptide was added. The plate was incubated for 60 min at room temperature, washed and counted in a standard fluorometer (excitation/emission 485/525 nm). Background (buffer alone) was subtracted.
# [4] = biological target: T3, full length RXR-beta (human, UniProt P28702 1-533); assay: plate binding assay, 800 ng/well SA488-labelled peptide on 400 ng/well adsorbed receptor
# T3 construct: mature; also called RXRβ; NR2B2
# T3 sequence (looked up): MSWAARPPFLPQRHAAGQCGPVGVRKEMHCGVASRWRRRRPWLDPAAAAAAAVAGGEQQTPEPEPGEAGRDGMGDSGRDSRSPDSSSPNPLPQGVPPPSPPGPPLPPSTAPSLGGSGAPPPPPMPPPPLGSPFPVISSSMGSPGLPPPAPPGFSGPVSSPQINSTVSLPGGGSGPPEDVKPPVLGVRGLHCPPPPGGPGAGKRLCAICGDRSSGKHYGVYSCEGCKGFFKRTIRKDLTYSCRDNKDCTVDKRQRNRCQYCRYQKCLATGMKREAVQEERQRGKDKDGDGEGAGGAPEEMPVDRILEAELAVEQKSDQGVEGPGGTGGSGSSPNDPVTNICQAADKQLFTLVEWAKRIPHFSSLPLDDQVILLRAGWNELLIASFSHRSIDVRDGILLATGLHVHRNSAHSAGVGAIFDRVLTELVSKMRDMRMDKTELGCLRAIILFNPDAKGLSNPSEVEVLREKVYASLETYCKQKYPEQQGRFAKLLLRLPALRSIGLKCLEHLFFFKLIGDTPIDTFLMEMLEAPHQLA
# Description: as §1
# [5] = biological target: T4, full length RXR-alpha (human, UniProt P19793 1-462); assay: as above
# T4 construct: mature; also called RXRα; NR2B1
# T4 sequence (looked up): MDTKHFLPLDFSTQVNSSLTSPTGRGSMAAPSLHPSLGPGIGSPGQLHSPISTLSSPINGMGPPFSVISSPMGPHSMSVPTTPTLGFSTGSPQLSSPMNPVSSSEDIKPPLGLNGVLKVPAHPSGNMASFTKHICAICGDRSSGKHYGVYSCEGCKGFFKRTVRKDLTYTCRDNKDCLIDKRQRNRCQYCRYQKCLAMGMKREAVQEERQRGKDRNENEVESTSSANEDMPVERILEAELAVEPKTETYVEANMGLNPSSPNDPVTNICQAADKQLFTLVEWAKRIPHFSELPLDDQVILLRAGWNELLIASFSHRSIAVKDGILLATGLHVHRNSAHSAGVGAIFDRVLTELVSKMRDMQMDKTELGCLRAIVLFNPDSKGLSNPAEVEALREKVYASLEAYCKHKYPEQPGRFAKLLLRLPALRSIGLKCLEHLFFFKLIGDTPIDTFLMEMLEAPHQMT
# Description: as §1
# [6] = biological target: T5, full length RXR-gamma (human, UniProt P48443 1-463); assay: as above
# T5 construct: mature; also called RXRγ; NR2B3
# T5 sequence (looked up): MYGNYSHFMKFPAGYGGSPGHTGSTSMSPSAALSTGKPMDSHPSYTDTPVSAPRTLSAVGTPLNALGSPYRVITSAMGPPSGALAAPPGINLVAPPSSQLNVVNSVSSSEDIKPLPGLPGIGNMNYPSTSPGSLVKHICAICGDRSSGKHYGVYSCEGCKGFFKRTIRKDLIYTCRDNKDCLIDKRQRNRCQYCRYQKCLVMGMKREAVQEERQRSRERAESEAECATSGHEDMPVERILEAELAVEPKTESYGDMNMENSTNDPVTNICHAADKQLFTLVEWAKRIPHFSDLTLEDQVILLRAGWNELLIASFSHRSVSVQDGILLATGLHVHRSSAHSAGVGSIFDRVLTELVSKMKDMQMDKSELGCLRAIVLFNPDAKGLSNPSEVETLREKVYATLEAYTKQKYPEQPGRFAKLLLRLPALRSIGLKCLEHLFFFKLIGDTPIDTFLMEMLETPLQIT
# Description: as §1
# [7] = biological target: T6, full length PPAR-gamma (human, UniProt P37231 1-505); assay: as above
# T6 construct: mature
# T6 sequence (looked up): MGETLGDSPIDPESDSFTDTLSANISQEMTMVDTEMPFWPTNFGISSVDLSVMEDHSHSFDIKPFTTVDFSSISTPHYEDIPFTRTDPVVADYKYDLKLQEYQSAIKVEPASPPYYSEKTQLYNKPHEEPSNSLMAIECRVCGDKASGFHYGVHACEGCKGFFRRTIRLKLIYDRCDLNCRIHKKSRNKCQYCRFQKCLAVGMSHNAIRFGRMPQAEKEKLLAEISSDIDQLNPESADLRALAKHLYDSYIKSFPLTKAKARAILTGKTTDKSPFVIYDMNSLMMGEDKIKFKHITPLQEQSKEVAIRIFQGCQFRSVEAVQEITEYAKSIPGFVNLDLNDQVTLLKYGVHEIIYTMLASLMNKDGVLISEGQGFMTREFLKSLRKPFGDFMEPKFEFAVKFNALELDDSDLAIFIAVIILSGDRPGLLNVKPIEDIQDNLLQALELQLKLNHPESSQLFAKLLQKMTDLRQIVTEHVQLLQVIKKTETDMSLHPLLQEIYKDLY
# Description: as §1
# [8] = biological target: T7, full-length human Nur77 (NR4A1) (human, UniProt P22736 1-598); assay: plate binding assay, SA488-labelled peptide on adsorbed Nur77, fluorescence
# T7 construct: mature
# T7 sequence (P22736 whole entry): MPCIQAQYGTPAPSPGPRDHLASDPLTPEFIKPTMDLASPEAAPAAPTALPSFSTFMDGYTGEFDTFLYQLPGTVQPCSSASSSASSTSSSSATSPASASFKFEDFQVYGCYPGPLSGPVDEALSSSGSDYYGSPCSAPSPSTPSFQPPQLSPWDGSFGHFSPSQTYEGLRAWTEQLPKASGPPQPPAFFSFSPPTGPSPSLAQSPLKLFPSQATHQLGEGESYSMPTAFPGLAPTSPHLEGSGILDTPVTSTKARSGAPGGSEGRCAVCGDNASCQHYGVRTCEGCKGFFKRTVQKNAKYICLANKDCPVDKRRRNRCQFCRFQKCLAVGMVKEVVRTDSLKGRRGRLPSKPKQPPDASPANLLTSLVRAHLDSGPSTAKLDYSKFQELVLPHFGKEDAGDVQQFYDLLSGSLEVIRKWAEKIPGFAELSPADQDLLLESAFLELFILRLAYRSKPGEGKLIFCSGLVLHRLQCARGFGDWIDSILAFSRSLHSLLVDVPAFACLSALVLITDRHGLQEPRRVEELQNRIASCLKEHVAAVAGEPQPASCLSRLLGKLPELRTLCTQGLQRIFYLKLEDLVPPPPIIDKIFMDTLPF
# Description: Experiment 4C. Binding of immodulin peptides to full-length human Nur77 (NR4A1). 400 ng/well recombinant human Nur77 protein (NR4A1) purchased from Abcam Inc, Cambridge, MA, was adsorbed to wells of a 96-well plate for 90 minutes at room temperature, then blocked with 200 uL 1% BSA in PBS buffer overnight. […] The plate was incubated for 60 min at room temperature, washed and counted in a standard fluorometer (excitation/emission 485/525 nm). Background (buffer alone) was subtracted.
Binder,fluorescence relative to imm3 binding (=100) [1],fluorescence relative to imm3 binding (=100) [2],Fluorescence (background subtracted) [3] [fluorescence counts],fluorescence relative to imm3 binding (=100) [4],fluorescence relative to imm3 binding (=100) [5],fluorescence relative to imm3 binding (=100) [6],fluorescence relative to imm3 binding (=100) (relative to imm3 binding (=100)) [7],fluorescence relative to imm3 binding (=100) [7],binding result [8]
B1,1.6 relative to imm3 binding (=100),22.9 relative to imm3 binding (=100),587,4.7 relative to imm3 binding (=100),12.9 relative to imm3 binding (=100),42 relative to imm3 binding (=100),6.8,–,–
B2,0.6 relative to imm3 binding (=100),22.2 relative to imm3 binding (=100),6570,2.9 relative to imm3 binding (=100),11.2 relative to imm3 binding (=100),100 relative to imm3 binding (=100),–,2.1 relative to imm3 binding (=100),–
B3,3 relative to imm3 binding (=100),3.2 relative to imm3 binding (=100),27,0.3 relative to imm3 binding (=100),3.6 relative to imm3 binding (=100),3.6 relative to imm3 binding (=100),–,0.1 relative to imm3 binding (=100),no binding (tested: 333 ng/well peptide on 400 ng/well Nur77)
B4,1.8 relative to imm3 binding (=100),22.7 relative to imm3 binding (=100),6800,4 relative to imm3 binding (=100),17.2 relative to imm3 binding (=100),90 relative to imm3 binding (=100),–,1.6 relative to imm3 binding (=100),–

# Reference: patent US20240327480A1 (published 2024)
